Test results as given in article PMC4841774 (eLife, 2016).

How the values were obtained:
[1] = target: MTA1-A (residues 162–354) (human) (UniProt Q13330); test: SEC-MALS; gel-filtrated co-expressed complexes at 1 mg/ml reapplied to Superdex S200; Optilab T-rEX and DAWN HELEOS detectors
[2] = target: MTA1-C (residues 162–715) (human) (UniProt Q13330); test: affinity purification with mass spectrometry; Flag-tagged MTA1 fragments co-transfected with HDAC1 in HEK293F; complexes purified on FLAG resin; endogenous RBBP4/7 identified by peptide mass spectrometry; ratio by densitometry of the SDS-PAGE gel (ImageJ)
[3] = target: MTA1-B (residues 162–546) (human) (UniProt Q13330); test: as above
[4] = target: the molecule itself; test: SEC-MALS; gel-filtrated co-expressed complexes at 1 mg/ml reapplied to Superdex S200; Optilab T-rEX and DAWN HELEOS detectors
[5] = target: T1, RBBP4 (residues 1–425), untagged (human, UniProt Q09028 1-425); test: as above; conditions: both partners purified
T1 construct: also called RbAp48; source: HEK293F, co-transfected with MTA1 fragments, co-purified (FLAG resin through MTA1, TEV elution, Superdex S200)
T1 sequence (Q09028 whole entry, the tested form may be a part): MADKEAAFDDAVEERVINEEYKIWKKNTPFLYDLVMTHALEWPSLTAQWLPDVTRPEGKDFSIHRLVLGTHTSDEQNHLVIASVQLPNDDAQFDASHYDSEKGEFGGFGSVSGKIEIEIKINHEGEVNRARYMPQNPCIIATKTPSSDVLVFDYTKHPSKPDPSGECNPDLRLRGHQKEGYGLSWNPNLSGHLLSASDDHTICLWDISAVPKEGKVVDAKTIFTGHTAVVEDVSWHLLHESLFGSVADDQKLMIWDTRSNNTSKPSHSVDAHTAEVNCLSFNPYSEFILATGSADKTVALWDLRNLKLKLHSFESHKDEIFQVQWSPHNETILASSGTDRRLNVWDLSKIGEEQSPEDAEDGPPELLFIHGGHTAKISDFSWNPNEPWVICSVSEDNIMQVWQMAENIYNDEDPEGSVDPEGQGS

[6] = target: T2, HDAC1 (residues 1–482), untagged (human, UniProt Q13547 1-482); test: SAXS; purified co-expressed complexes, 1 to 5 mg/ml, 25°C, Diamond B21; ab initio envelopes; conditions: both partners purified
T2 construct: Histone deacetylase 1 (HDAC1), residues 1-482; source: HEK293F, co-transfected with MTA1 fragments, co-purified (FLAG resin through MTA1, TEV elution, Superdex S200)
T2 sequence (Q13547 whole entry, the tested form may be a part): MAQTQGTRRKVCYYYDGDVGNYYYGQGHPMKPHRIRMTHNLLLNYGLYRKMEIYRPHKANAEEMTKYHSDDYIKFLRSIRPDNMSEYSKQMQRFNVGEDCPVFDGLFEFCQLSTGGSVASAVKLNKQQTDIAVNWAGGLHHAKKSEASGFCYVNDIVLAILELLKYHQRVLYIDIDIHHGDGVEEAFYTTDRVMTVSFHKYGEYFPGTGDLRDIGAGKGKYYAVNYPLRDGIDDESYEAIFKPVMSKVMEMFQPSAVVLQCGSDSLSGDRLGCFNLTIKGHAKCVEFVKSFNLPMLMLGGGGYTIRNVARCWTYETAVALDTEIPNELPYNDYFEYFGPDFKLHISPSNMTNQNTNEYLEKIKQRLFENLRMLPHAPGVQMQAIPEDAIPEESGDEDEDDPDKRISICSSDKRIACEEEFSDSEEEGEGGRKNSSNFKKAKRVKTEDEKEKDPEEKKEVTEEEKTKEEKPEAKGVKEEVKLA

Molecule “MTA1-A (residues 162–354) (from UniProt Q13330 162-354) (domain or fragment)” has a stoichiometry N (copies in the complex) [1] of 2.

“endogenous RBBP4/7 (from UniProt Q09028 1-425) (natural protein)” showed a ratio HDAC1:RBBP4/7 (gel densitometry) (RBBP4/7 per HDAC1) [2] of 1.5 and a ratio HDAC1:RBBP4/7 (gel densitometry) (RBBP4/7 per HDAC1) [3] of 1.

B1: MTA1-B (residues 162–546) (domain or fragment, human, UniProt Q13330 162-546, looked up)
chain: ADKGEIRVGNRYQADITDLLKEGEEDGRDQSRLETQVWEAHNPLTDKQIDQFLVVARSVGTFARALDCSSSVRQPSLHMSAAAASRDITLFHAMDTLHKNIYDISKAISALVPQGGPVLCRDEMEEWSASEANLFEEALEKYGKDFTDIQQDFLPWKSLTSIIEYYYMWKTTDRYVQQKRLKAAEAESKLKQVYIPNYNKPNPNQISVNNVKAGVVNGTGAPGQSPGAGRACESCYTTQSYQWYSWGPPNMQCRLCASCWTYWKKYGGLKMPTRLDGERPGPNRSNMSPHGLPARSSGSPKFAMKTRQAFYLHTTKLTRIARRLCREILRPWHAARHPYLPINSAAIKAECTARLPEASQSPLVLKQAVRKPLEAVLRYLETHPR
notes: Captured on FLAG resin by the tag, then released with TEV; Two copies in the dimeric MTA1-B:HDAC1:RBBP4 complex by MALS; not shown: His10, N-terminal, cleaved; Flag3, N-terminal, cleaved
In the case of B1, the “stoichiometry N” value [4] is reported as 2 copies in the complex, the binding result [5] is reported as “binds” and the binding result [6] is reported as “binds”.
